First the molecules themselves.
B2: Mia40Δ290 His (S. cerevisiae Mia40 devoid of the N-terminal 290 residues) (domain or fragment, UniProt P36046 291-403, looked up)
chain: EINWDCPCLGGMAHGPCGEEFKSAFSCFVYSEAEPKGIDCVEKFQHMQDCFRKYPEHYAEQLKETSDDEEPQDKVKVNTIESAPNVSSAKENAAKKAEQSDVKKEPLNEESKP
notes: Mia40, S. cerevisiae, lacking the first 290 amino acids; core domain of about 15 kDa; also called core domain of Mia40; soluble functional domain of Mia40; source: purified as 6His-tagged protein

In data set [1] the target is B2. In words: cross-linking; glutaraldehyde 0.1 % final, equimolar purified proteins alone or together, 50 mM Hepes-KOH pH 7.4, on ice, 20 seconds to 10 minutes; SDS-PAGE and anti-His immunoblot. Particulars: both partners purified. (A western blot detects proteins with antibodies after separation by electrophoresis.)
Data set [2] concerns the molecule itself. The data set is described as above.
The target in data set [3] is B2. Kind of data set: ITC; 1 mM Mia40Δ290 His in the syringe, 0.1 mM TrxC30/33SHis in the cell; Kd calculated with the Origin software. The conditions noted are these: both partners purified.

B1: Thioredoxin 2 (Trx2), His-tagged (natural protein, S. cerevisiae, UniProt P22803 1-104, looked up)
chain: MVTQLKSASEYDSALASGDKLVVVDFFATWCGPCKMIAPMIEKFAEQYSDAAFYKLDVDEVSDVAQKAEVSSMPTLIFYKGGKEVTRVVGANPAAIKQAIASNV
notes: Thioredoxin 2 (Trx2), S. cerevisiae, cytosolic isoform; source: purified as 6His-tagged protein
As for B1, the binding result in data set [1] and in data set [2] was “binds” in each case.
Consider B2, for which, in data set [2], the binding result is reported as “binds”.

B3: Trx1 C30/33S double mutant, His-tagged (natural protein, S. cerevisiae, UniProt P22217 1-103, looked up)
chain: MVTQFKTASEFDSAIAQDKLVVVDFYATWSGPSKMIAPMIEKFSEQYPQADFYKLDVDELGDVAQKNEVSAMPTLLLFKNGKEVAKVVGANPAAIKQAIAANA
notes: Thioredoxin 1 (Trx1), S. cerevisiae, both active-site cysteines changed to serine; also called Trx1His C30/33S; TrxC30/33SHis; source: purified as 6His-tagged protein
In general, Kd refers to the concentration at which binding is half-saturated. In the case of B3, the binding result in data set [2] is recorded as “binds”. The Kd in data set [3] is 30 µM.

B4: Thioredoxin 1 (Trx1), His-tagged, wild type (natural protein, S. cerevisiae, UniProt P22217 1-103, looked up)
chain: MVTQFKTASEFDSAIAQDKLVVVDFYATWCGPCKMIAPMIEKFSEQYPQADFYKLDVDELGDVAQKNEVSAMPTLLLFKNGKEVAKVVGANPAAIKQAIAANA
notes: Thioredoxin 1 (Trx1), S. cerevisiae, cytosolic isoform; cloned in PET24 vector; also called Trx1His wt; TrxHis; source: E. coli, purified (Ni-NTA); for the pull-down imported into isolated wt yeast mitochondria
Consider B4, for which the binding result in data set [1] and in data set [2] was “binds” each time.

Source of the values: article doi:10.1101/2021.06.22.449413, “A Thioredoxin reductive mechanism balances the oxidative protein import pathway in the intermembrane space of mitochondria” (bioRxiv, 2021).
